Values quoted from earlier work, collected in article PMC2935699.

Key:
Galanin receptor 3 = Galanin receptor 3 (UniProt O60755)
Galanin receptor 2 = Galanin receptor 2 (UniProt O43603)
Galanin receptor 1 = Galanin receptor 1 (UniProt P47211)
UniProt P47211, sequence (P47211 whole entry): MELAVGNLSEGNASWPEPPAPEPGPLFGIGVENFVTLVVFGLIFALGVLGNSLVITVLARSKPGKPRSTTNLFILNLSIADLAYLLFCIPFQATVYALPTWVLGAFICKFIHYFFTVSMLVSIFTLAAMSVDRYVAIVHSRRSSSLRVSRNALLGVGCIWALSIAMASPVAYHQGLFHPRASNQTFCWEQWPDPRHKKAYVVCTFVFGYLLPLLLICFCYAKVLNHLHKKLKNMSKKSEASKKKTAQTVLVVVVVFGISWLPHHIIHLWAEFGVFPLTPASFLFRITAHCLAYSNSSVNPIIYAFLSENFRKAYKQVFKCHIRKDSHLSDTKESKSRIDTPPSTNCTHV

UniProt O43603, sequence (O43603 whole entry): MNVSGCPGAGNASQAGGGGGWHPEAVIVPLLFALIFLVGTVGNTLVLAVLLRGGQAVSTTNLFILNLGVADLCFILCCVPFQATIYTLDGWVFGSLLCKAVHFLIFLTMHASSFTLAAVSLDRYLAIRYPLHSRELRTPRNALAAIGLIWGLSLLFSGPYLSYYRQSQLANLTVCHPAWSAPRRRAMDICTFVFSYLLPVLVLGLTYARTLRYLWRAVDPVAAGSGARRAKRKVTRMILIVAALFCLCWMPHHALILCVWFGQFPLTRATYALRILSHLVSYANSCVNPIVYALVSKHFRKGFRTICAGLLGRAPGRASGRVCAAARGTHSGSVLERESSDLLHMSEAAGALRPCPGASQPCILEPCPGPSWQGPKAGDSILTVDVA
UniProt O60755, sequence (O60755 whole entry): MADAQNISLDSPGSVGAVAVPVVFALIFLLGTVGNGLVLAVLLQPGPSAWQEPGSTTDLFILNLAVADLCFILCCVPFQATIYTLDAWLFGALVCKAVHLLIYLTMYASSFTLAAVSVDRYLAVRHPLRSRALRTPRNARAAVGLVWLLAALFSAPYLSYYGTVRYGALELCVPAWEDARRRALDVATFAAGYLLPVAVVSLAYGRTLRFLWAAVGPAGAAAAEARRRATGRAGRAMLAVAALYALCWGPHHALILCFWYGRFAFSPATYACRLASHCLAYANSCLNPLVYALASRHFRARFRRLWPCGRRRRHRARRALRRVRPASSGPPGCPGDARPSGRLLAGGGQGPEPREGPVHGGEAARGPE

Ki (Galanin receptor 3): 49.6 nM | Ki (Galanin receptor 2): 5.66 nM | Ki (Galanin receptor 1): 4.8 nM
Substance: Galanin 1-16 1-16 (from UniProt P22466)
